Measurements as given in patent US20220119534A1 (DRAGONFLY THERAPEUTICS, published 2022).
Several values for one entry are separate records, joined by “and”; a condition that tells them apart may be missing. Equal values may be shown once.

Experiments:
[1] = target: T1, Human CLEC12A expressed on cells (Ba/F3-hCLEC12A, PL21, HL60) (human, UniProt Q5QGZ9 1-265); assay: cell-based or functional assay
T1 sequence: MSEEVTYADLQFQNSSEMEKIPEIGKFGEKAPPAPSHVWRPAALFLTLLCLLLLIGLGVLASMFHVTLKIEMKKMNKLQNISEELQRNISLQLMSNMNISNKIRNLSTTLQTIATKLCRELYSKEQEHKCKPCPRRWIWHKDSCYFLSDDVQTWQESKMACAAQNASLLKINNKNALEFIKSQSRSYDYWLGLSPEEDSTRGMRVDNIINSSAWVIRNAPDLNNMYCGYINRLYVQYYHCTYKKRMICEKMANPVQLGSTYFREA

[2] = target: T2, Human CD16a F158 (FcγRIIIa F158) (human, UniProt P08637 17-208, biotinylated); assay: SPR 25C, steady-state fit, average
T2 construct: Bought recombinant receptor; also called hFcγRIIIa F158

[3] = target: T3, Human CLEC12A-His (recombinant, K244 WT) (human, UniProt Q5QGZ9 65-265); assay: SPR, two-state fit; control sample
T3 construct: Made in house (Dragonfly Tx); also called hCLEC12A; hCLEC12A-His; not shown: His tag
T3 sequence: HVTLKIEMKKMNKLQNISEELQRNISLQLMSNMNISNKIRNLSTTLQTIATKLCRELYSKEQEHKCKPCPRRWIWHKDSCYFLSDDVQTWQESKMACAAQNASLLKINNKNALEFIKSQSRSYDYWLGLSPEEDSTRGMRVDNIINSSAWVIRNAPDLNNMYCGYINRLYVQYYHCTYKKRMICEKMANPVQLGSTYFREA

[4] = target: T3, Human CLEC12A-His (recombinant, K244 WT); assay: SPR, two-state fit (ka1); control sample
Experimental: (§1) Briefly, human Fc specific antibodies were covalently immobilized at a density ˜8000-10000 resonance units (RU) on carboxy methyl dextran matrix of a CM5 biosensor chip via amine-coupling chemistry to create an anti-hFc IgG chip. […] Association was monitored for 300 seconds and dissociation was monitored for 600 seconds. Surfaces were regenerated between cycles with three pulses of 10 mM glycine-HCl, pH 1.7 injected for 20 seconds at 100 μl/min. HBS-EP+ (1×) with 0.1 mg/ml BSA was used as running buffer throughout the experiment. Experiments were performed at physiological temperature of 37° C. To obtain kinetic rate constants and overall binding affinity, double-referenced data were fit to a two-state kinetic model using Biacore 8K Insight Evaluation software (Cytiva).

[5] = target: T3, Human CLEC12A-His (recombinant, K244 WT); assay: SPR, two-state fit (ka1); control sample; remark: listed apart in the source
Experimental: as §1

[6] = target: T4, Human CD16a V158 (FcγRIIIa V158) (human, UniProt P08637 17-208, biotinylated); assay: SPR 25C, biotinylated CD16a V158 captured
T4 construct: Bought recombinant receptor; also called hCD16aV; hFcγRIIIa V158
Experimental: (§2) Human and cynomolgus CD64, high and low affinity alleles of CD16a (V158 and F158, respectively), two alleles of CD32a (H131 and R131), CD16b, CD32b and cynomolgus CD16 were captured via biotin on a primed (according to the manufacturers instruction) Biacore chip. […] Due to irreversibility of streptavidin-biotin interaction, the capture step for all receptors except FcγRI (CD64) was performed just once prior to the start of the binding experiment. hCD64 and cyno CD64 capture on the CAP chip surface was performed during each cycle in accordance with the manufacturer's instructions for the Biotin CAPture kit.

[7] = target: T5, Human CD32a H131 (FcγRIIa H131) (human, UniProt P12318 36-218, limits assumed, biotinylated); assay: SPR 25C, biotinylated receptor captured on SA chip
T5 construct: Bought recombinant receptor; also called hFcγRIIa H131; FcgRIIa H131
T5 sequence (looked up): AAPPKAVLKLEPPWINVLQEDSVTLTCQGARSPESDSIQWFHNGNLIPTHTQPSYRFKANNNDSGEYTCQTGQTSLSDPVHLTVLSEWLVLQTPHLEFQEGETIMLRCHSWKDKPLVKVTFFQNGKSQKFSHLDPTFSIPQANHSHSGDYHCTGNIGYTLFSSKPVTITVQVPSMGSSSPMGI
Experimental: as §2

[8] = target: T6, Human CD32a R131 (FcγRIIa R131) (human, UniProt P12318 36-218, limits assumed, biotinylated); assay: SPR 25C, biotinylated receptor captured on SA chip
T6 construct: Bought recombinant receptor; also called hFcγRIIa R131; FcgRIIa R131
T6 sequence (looked up): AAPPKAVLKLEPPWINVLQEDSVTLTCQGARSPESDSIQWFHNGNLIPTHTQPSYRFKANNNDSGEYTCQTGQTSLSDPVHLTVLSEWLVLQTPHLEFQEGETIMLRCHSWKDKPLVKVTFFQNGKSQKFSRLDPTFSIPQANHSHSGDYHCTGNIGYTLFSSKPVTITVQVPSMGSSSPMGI
Experimental: as §2

[9] = target: T3, Human CLEC12A-His (recombinant, K244 WT); assay: SPR, two-state fit (ka1); after 4 wks 40C in HST pH 6.0
Experimental: as §1

T4 sequence (P08637 17-208 F176V limits assumed): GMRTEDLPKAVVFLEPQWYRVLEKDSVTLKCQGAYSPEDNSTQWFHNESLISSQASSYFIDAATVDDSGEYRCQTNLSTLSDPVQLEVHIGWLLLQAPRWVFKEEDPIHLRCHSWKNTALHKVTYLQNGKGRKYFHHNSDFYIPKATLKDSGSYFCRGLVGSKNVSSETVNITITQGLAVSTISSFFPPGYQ
T2 sequence (P08637 17-208 limits assumed): as the sequence (P08637 17-208 F176V limits assumed) above, with V160F counted along it

B1: AB0089 TriNKET (bispecific antibody, human IgG1, kappa)
chain: QLQLQESGPGLVKPSETLSLTCTVSGFSLTNYGLHWIRQPPGKCLEWIGVIWVGGATDYNPSLKSRVTISVDTSKNQFSLKLSSVQAADTAVYYCAKGDYGDTLDYWGQGTLVTVSSGGGGSGGGGSGGGGSGGGGSDIQMTQSPSSLSASVGDRVTITCHASQNINFWLSWYQQKPGKAPKLLIYEASNLHTGVPSRFSGSGSGTDFTLTISSLQPEDFATYYCQQSHSYPLTFGCGTKLEIKGSDKTHTCPPCPAPELLGGPSVFLFPPKPKDTLMISRTPEVTCVVVDVSHEDPEVKFNWYVDGVEVHNAKTKPREEQYNSTYRVVSVLTVLHQDWLNGKEYKCKVSNKALPAPIEKTISKAKGQPREPRVYTLPPCRDELTKNQVSLTCLVKGFYPSDIAVEWESNGQPENNYKTTPPVLVSDGSFTLYSKLTVDKSRWQQGNVFSCSVMHEALHNHYTQKSLSLSPG
heavy: EVQLVESGGGLVKPGGSLRLSCAASGFTFSSYSMNWVRQAPGKGLEWVSSISSSSSYIYYADSVKGRFTISRDNAKNSLYLQMNSLRAEDTAVYYCARGAPIGAAAGWFDPWGQGTLVTVSSASTKGPSVFPLAPSSKSTSGGTAALGCLVKDYFPEPVTVSWNSGALTSGVHTFPAVLQSSGLYSLSSVVTVPSSSLGTQTYICNVNHKPSNTKVDKKVEPKSCDKTHTCPPCPAPELLGGPSVFLFPPKPKDTLMISRTPEVTCVVVDVSHEDPEVKFNWYVDGVEVHNAKTKPREEQYNSTYRVVSVLTVLHQDWLNGKEYKCKVSNKALPAPIEKTISKAKGQPREPQVCTLPPSRDELTENQVSLTCLVKGFYPSDIAVEWESNGQPENNYKTTPPVLDSDGSFFLYSWLTVDKSRWQQGNVFSCSVMHEALHNHYTQKSLSLSPG
light: DIQMTQSPSSVSASVGDRVTITCRASQGISSWLAWYQQKPGKAPKLLIYAASSLQSGVPSRFSGSGSGTDFTLTISSLQPEDFATYYCQQGVSFPRTFGGGTKVEIKRTVAAPSVFIFPPSDEQLKSGTASVVCLLNNFYPREAKVQWKVDNALQSGNSQESVTEQDSKDSTYSLSSTLTLSKADYEKHKVYACEVTHQGLSSPVTKSFNRGEC
notes: F3' format heterodimer of three chains; human IgG1 Fc with EW-RVT and Y349C/S354C mutations; also called AB0089 Lot AB0089-002; CLEC12A TriNKET AB0089
B1 was tested, and the “EC50, cytotoxicity potency; after pH 8, 40C, 2 wks” value [1] was 0.23 nM, the “EC50, cytotoxicity potency; control sample” value [1] was 0.11 nM and the Kd [2] was 1270 nM. The Kd [3] was 1 nM, the kon [4] was 1.01e+07 M⁻¹ s⁻¹ and the kon [5] was 1.01e+07 M⁻¹ s⁻¹. The Kd [6] was 336 nM and 343 nM and 321 nM, the koff [6] was 0.0294 s⁻¹ and 0.0264 s⁻¹ and 0.0272 s⁻¹ and the kon [6] was 87600 M⁻¹ s⁻¹ and 77000 M⁻¹ s⁻¹ and 84600 M⁻¹ s⁻¹. The Kd [7] was 954 nM and 823 nM and 930 nM and 895 nM, the Kd [8] was 1340 nM and 1020 nM and 1600 nM and 1060 nM and the kon [9] was 7.91e+06 M⁻¹ s⁻¹.
